Results from patent publication US20210032299A1 (Eli Lilly, published 2021).
Starred links: 1 amine or outer side, 2 acyl side, 3 side chain; linkers in the order of their positions; H or OH if unused. Non-standard residues stand in square brackets, D forms with d. Groups on a side chain read outwards from the residue. No end group written: not given here. *: point of attachment. C20 diacid = O=C(O)CCCCCCCCCCCCCCCCCCC(=O)*; C18 diacid = O=C(O)CCCCCCCCCCCCCCCCC(=O)*; αMePhe(2-F) = C[C@](N)(Cc1ccccc1F)C(=O)O; γGlu = O=C(O)[C@H](CCC(=O)[*:2])N[*:1]; αMeF = C[C@](N)(Cc1ccccc1)C(=O)O; 4Pal = N[C@@H](Cc1ccncc1)C(=O)O; αMeL = CC(C)C[C@](C)(N)C(=O)O; AEEA = NCCOCCOCC(=O)O; Aib = CC(C)(N)C(=O)O

Key:
human glucagon receptor = target: T1, human glucagon receptor (human, UniProt P47871 26-477); test: SPA, displacement of [125I]-Gcg from hGcgR membranes, 0.1% bacitracin
T1 construct: whole, on cells; Assayed as crude membranes of stably transfected HEK293 cells; also called hGcgR; GcgR
Protocol: The binding buffer contains 25 mM 4-(2-hydroxyethyl)-1-piperazineethanesulfonic acid (HEPES), pH 7.4, 2.5 mM CaCl₂), 1 mM MgCl₂, 0.1% (w/v) bacitracin (Research Products), 0.003% (w/v) Polyoxyethylenesorbitan monolaurate (TWEEN®-20), and Roche Complete™ Protease Inhibitors without EDTA. […] Plates are sealed and mixed on a plate shaker (setting 6) for 1 minute and read with a PerkinElmer Trilux MicroBeta® scintillation counter after 12 hours of incubation/settling time at room temperature.
(§1) Data are analyzed using four-parameter (curve maximum, curve minimum, […], Hill slope) nonlinear regression routines (Genedata Screener, version 12.0.4, Genedata AG, Basal, Switzerland). […] Values for Kᵢ are reported as the geometric mean, with error expressed as the standard error of the mean (SEM) and n is equal to the number of independent replicates (determined in assays performed on different days).

[1] = target: T2, human glucose-dependent insulinotropic polypeptide (GIP) receptor (human, UniProt P48546 22-466); test: SPA, displacement of [125I]-GIP from hGIPR membranes, 0.1% bacitracin
T2 construct: whole, on cells; Assayed as crude membranes of stably transfected CHO cells; also called hGIPR; human GIP receptor
T2 sequence (looked up): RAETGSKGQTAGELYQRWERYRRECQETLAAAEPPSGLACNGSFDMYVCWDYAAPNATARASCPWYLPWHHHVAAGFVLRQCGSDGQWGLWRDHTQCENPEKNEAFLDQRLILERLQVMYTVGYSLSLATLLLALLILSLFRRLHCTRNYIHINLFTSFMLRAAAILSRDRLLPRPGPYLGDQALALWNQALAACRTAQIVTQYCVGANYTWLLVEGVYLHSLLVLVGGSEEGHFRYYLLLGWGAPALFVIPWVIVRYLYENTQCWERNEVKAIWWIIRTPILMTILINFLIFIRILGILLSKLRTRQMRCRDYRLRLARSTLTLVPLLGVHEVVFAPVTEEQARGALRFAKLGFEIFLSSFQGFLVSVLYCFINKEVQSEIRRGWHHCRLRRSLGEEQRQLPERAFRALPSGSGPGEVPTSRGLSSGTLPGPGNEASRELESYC

human GLP-1 receptor = target: T3, human GLP-1 receptor (human, UniProt P43220 24-463); test: SPA, displacement of [125I]-GLP-1 from hGLP-1R membranes, 0.1% bacitracin
T3 construct: whole, on cells; Assayed as crude membranes of stably transfected HEK293 cells; also called hGLP1R; hGLP-1R
Protocol: The binding buffer contains 25 mM HEPES, pH 7.4, 2.5 mM CaCl₂, 1 mM MgCl₂, 0.1% (w/v) bacitracin, 0.003% (w/v) TWEEN®-20, and Roche Complete™ Protease Inhibitors without EDTA.
as §1, with “days). Geometric Means are calculated as follows: […]” for “days).”

T1 sequence (P47871 26-477): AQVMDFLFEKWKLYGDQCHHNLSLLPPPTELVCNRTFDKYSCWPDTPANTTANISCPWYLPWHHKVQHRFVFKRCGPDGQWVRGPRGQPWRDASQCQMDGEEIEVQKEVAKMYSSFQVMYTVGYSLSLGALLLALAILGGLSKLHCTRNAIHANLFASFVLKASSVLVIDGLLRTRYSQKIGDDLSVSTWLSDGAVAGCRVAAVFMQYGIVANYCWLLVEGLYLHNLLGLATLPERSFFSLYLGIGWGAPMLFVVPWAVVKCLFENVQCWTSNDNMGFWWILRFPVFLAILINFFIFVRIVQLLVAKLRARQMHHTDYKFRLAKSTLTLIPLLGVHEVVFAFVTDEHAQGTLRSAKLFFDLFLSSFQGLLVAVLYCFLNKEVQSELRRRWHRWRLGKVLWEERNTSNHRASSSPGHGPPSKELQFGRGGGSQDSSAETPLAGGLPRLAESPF

B1: Example 45 (peptide)
peptide: Y[Aib]EGTFISDYSI[αMeL]LDKK([AEEA-AEEA-γGlu-C20 diacid])HQ[Aib]DFVE[4Pal]LLETGPSSGAPPPS-NH2
modifications: N-terminus assumed
SMILES: CC[C@H](C)[C@H](NC(=O)[C@H](Cc1ccccc1)NC(=O)[C@@H](NC(=O)CNC(=O)[C@H](CCC(=O)O)NC(=O)C(C)(C)NC(=O)[C@@H](N)Cc1ccc(O)cc1)[C@@H](C)O)C(=O)N[C@@H](CO)C(=O)N[C@@H](CC(=O)O)C(=O)N[C@@H](Cc1ccc(O)cc1)C(=O)N[C@@H](CO)C(=O)N[C@H](C(=O)N[C@@](C)(CC(C)C)C(=O)N[C@@H](CC(C)C)C(=O)N[C@@H](CC(=O)O)C(=O)N[C@@H](CCCCN)C(=O)N[C@@H](CCCCNC(=O)COCCOCCNC(=O)COCCOCCNC(=O)CC[C@H](NC(=O)CCCCCCCCCCCCCCCCCCC(=O)O)C(=O)O)C(=O)N[C@@H](Cc1c[nH]cn1)C(=O)N[C@@H](CCC(N)=O)C(=O)NC(C)(C)C(=O)N[C@@H](CC(=O)O)C(=O)N[C@@H](Cc1ccccc1)C(=O)N[C@H](C(=O)N[C@@H](CCC(=O)O)C(=O)N[C@@H](Cc1ccncc1)C(=O)N[C@@H](CC(C)C)C(=O)N[C@@H](CC(C)C)C(=O)N[C@@H](CCC(=O)O)C(=O)N[C@H](C(=O)NCC(=O)N1CCC[C@H]1C(=O)N[C@@H](CO)C(=O)N[C@@H](CO)C(=O)NCC(=O)N[C@@H](C)C(=O)N1CCC[C@H]1C(=O)N1CCC[C@H]1C(=O)N1CCC[C@H]1C(=O)N[C@@H](CO)C(N)=O)[C@@H](C)O)C(C)C)[C@@H](C)CC
With B1 the Ki (human glucagon receptor) was 660 nM and the Ki [1] was 0.0663 nM.

B2: Example 41 (peptide)
peptide: Y[Aib]EGT[αMeF]ISDYSIALDKK([AEEA-AEEA-γGlu-C20 diacid])HQ[Aib]DFVE[4Pal]LLETGPSSGAPPPS-NH2
modifications: N-terminus assumed
SMILES: CC[C@H](C)[C@H](NC(=O)[C@H](CO)NC(=O)[C@H](Cc1ccc(O)cc1)NC(=O)[C@H](CC(=O)O)NC(=O)[C@H](CO)NC(=O)[C@@H](NC(=O)[C@](C)(Cc1ccccc1)NC(=O)[C@@H](NC(=O)CNC(=O)[C@H](CCC(=O)O)NC(=O)C(C)(C)NC(=O)[C@@H](N)Cc1ccc(O)cc1)[C@@H](C)O)[C@@H](C)CC)C(=O)N[C@@H](C)C(=O)N[C@@H](CC(C)C)C(=O)N[C@@H](CC(=O)O)C(=O)N[C@@H](CCCCN)C(=O)N[C@@H](CCCCNC(=O)COCCOCCNC(=O)COCCOCCNC(=O)CC[C@H](NC(=O)CCCCCCCCCCCCCCCCCCC(=O)O)C(=O)O)C(=O)N[C@@H](Cc1c[nH]cn1)C(=O)N[C@@H](CCC(N)=O)C(=O)NC(C)(C)C(=O)N[C@@H](CC(=O)O)C(=O)N[C@@H](Cc1ccccc1)C(=O)N[C@H](C(=O)N[C@@H](CCC(=O)O)C(=O)N[C@@H](Cc1ccncc1)C(=O)N[C@@H](CC(C)C)C(=O)N[C@@H](CC(C)C)C(=O)N[C@@H](CCC(=O)O)C(=O)N[C@H](C(=O)NCC(=O)N1CCC[C@H]1C(=O)N[C@@H](CO)C(=O)N[C@@H](CO)C(=O)NCC(=O)N[C@@H](C)C(=O)N1CCC[C@H]1C(=O)N1CCC[C@H]1C(=O)N1CCC[C@H]1C(=O)N[C@@H](CO)C(N)=O)[C@@H](C)O)C(C)C
With B2 the Ki (human glucagon receptor) was 758 nM and the Ki [1] was 0.143 nM.

B3: Example 121 (peptide)
peptide: Y[Aib]EGT[αMePhe(2-F)]ISDYSILLDKIHQ[Aib]DFVE[4Pal]K([AEEA-AEEA-γGlu-C20 diacid])LEQGPSSGAPPPS-NH2
modifications: N-terminus assumed
SMILES: CC[C@H](C)[C@H](NC(=O)[C@H](CO)NC(=O)[C@H](Cc1ccc(O)cc1)NC(=O)[C@H](CC(=O)O)NC(=O)[C@H](CO)NC(=O)[C@@H](NC(=O)[C@](C)(Cc1ccccc1F)NC(=O)[C@@H](NC(=O)CNC(=O)[C@H](CCC(=O)O)NC(=O)C(C)(C)NC(=O)[C@@H](N)Cc1ccc(O)cc1)[C@@H](C)O)[C@@H](C)CC)C(=O)N[C@@H](CC(C)C)C(=O)N[C@@H](CC(C)C)C(=O)N[C@@H](CC(=O)O)C(=O)N[C@@H](CCCCN)C(=O)N[C@H](C(=O)N[C@@H](Cc1c[nH]cn1)C(=O)N[C@@H](CCC(N)=O)C(=O)NC(C)(C)C(=O)N[C@@H](CC(=O)O)C(=O)N[C@@H](Cc1ccccc1)C(=O)N[C@H](C(=O)N[C@@H](CCC(=O)O)C(=O)N[C@@H](Cc1ccncc1)C(=O)N[C@@H](CCCCNC(=O)COCCOCCNC(=O)COCCOCCNC(=O)CC[C@H](NC(=O)CCCCCCCCCCCCCCCCCCC(=O)O)C(=O)O)C(=O)N[C@@H](CC(C)C)C(=O)N[C@@H](CCC(=O)O)C(=O)N[C@@H](CCC(N)=O)C(=O)NCC(=O)N1CCC[C@H]1C(=O)N[C@@H](CO)C(=O)N[C@@H](CO)C(=O)NCC(=O)N[C@@H](C)C(=O)N1CCC[C@H]1C(=O)N1CCC[C@H]1C(=O)N1CCC[C@H]1C(=O)N[C@@H](CO)C(N)=O)C(C)C)[C@@H](C)CC
B3 was tested, and the Ki (human glucagon receptor) was 94.9 nM and the Ki [1] was 0.103 nM.

B4: Example 35 (peptide)
peptide: Y[Aib]EGT[αMeL]ISDYSIALDKK([AEEA-AEEA-γGlu-C20 diacid])HQ[Aib]EFVNYLLATGPSSGAPPPS-NH2
modifications: N-terminus assumed
SMILES: CC[C@H](C)[C@H](NC(=O)[C@H](CO)NC(=O)[C@H](Cc1ccc(O)cc1)NC(=O)[C@H](CC(=O)O)NC(=O)[C@H](CO)NC(=O)[C@@H](NC(=O)[C@](C)(CC(C)C)NC(=O)[C@@H](NC(=O)CNC(=O)[C@H](CCC(=O)O)NC(=O)C(C)(C)NC(=O)[C@@H](N)Cc1ccc(O)cc1)[C@@H](C)O)[C@@H](C)CC)C(=O)N[C@@H](C)C(=O)N[C@@H](CC(C)C)C(=O)N[C@@H](CC(=O)O)C(=O)N[C@@H](CCCCN)C(=O)N[C@@H](CCCCNC(=O)COCCOCCNC(=O)COCCOCCNC(=O)CC[C@H](NC(=O)CCCCCCCCCCCCCCCCCCC(=O)O)C(=O)O)C(=O)N[C@@H](Cc1c[nH]cn1)C(=O)N[C@@H](CCC(N)=O)C(=O)NC(C)(C)C(=O)N[C@@H](CCC(=O)O)C(=O)N[C@@H](Cc1ccccc1)C(=O)N[C@H](C(=O)N[C@@H](CC(N)=O)C(=O)N[C@@H](Cc1ccc(O)cc1)C(=O)N[C@@H](CC(C)C)C(=O)N[C@@H](CC(C)C)C(=O)N[C@@H](C)C(=O)N[C@H](C(=O)NCC(=O)N1CCC[C@H]1C(=O)N[C@@H](CO)C(=O)N[C@@H](CO)C(=O)NCC(=O)N[C@@H](C)C(=O)N1CCC[C@H]1C(=O)N1CCC[C@H]1C(=O)N1CCC[C@H]1C(=O)N[C@@H](CO)C(N)=O)[C@@H](C)O)C(C)C
B4 showed a Ki (human GLP-1 receptor) of 177 nM and a Ki [1] of 0.0351 nM.

B5: Example 49 (peptide)
peptide: Y[Aib]EGTFISDYSI[αMeL]LDKK([AEEA-AEEA-γGlu-C18 diacid])HQ[Aib]DFVE[4Pal]LLAGGPSSGAPPPS-NH2
modifications: N-terminus assumed
SMILES: CC[C@H](C)[C@H](NC(=O)[C@H](Cc1ccccc1)NC(=O)[C@@H](NC(=O)CNC(=O)[C@H](CCC(=O)O)NC(=O)C(C)(C)NC(=O)[C@@H](N)Cc1ccc(O)cc1)[C@@H](C)O)C(=O)N[C@@H](CO)C(=O)N[C@@H](CC(=O)O)C(=O)N[C@@H](Cc1ccc(O)cc1)C(=O)N[C@@H](CO)C(=O)N[C@H](C(=O)N[C@@](C)(CC(C)C)C(=O)N[C@@H](CC(C)C)C(=O)N[C@@H](CC(=O)O)C(=O)N[C@@H](CCCCN)C(=O)N[C@@H](CCCCNC(=O)COCCOCCNC(=O)COCCOCCNC(=O)CC[C@H](NC(=O)CCCCCCCCCCCCCCCCC(=O)O)C(=O)O)C(=O)N[C@@H](Cc1c[nH]cn1)C(=O)N[C@@H](CCC(N)=O)C(=O)NC(C)(C)C(=O)N[C@@H](CC(=O)O)C(=O)N[C@@H](Cc1ccccc1)C(=O)N[C@H](C(=O)N[C@@H](CCC(=O)O)C(=O)N[C@@H](Cc1ccncc1)C(=O)N[C@@H](CC(C)C)C(=O)N[C@@H](CC(C)C)C(=O)N[C@@H](C)C(=O)NCC(=O)NCC(=O)N1CCC[C@H]1C(=O)N[C@@H](CO)C(=O)N[C@@H](CO)C(=O)NCC(=O)N[C@@H](C)C(=O)N1CCC[C@H]1C(=O)N1CCC[C@H]1C(=O)N1CCC[C@H]1C(=O)N[C@@H](CO)C(N)=O)C(C)C)[C@@H](C)CC
Work on B5 yielded a Ki (human GLP-1 receptor) of 596 nM and a Ki [1] of 0.0512 nM.

B6: Example 55 (peptide)
peptide: YXEGTXISDYSIXLDKKHQXDFVEXLLAGGPSSGAPPPS
modifications: Aib2; Iva6; αMeL13; K17((2-[2-(2-Amino-ethoxy)-ethoxy]-acetyl)2-(γ-Glu)-CO-(CH2)18-CO2H); Aib20; 4-Pal25; C-terminal amide
With B6 the Ki (human GLP-1 receptor) was 262 nM and the Ki [1] was 0.0331 nM.
